Drawing on doi:10.1101/411223 (bioRxiv, 2018), this text covers binding result and stoichiometry N for two molecules.

In one assay the target is T1, Kap114p (Δ347-371) (S. cerevisiae, UniProt P53067 1-1004, Δ347-371).
T1 sequence (looked up): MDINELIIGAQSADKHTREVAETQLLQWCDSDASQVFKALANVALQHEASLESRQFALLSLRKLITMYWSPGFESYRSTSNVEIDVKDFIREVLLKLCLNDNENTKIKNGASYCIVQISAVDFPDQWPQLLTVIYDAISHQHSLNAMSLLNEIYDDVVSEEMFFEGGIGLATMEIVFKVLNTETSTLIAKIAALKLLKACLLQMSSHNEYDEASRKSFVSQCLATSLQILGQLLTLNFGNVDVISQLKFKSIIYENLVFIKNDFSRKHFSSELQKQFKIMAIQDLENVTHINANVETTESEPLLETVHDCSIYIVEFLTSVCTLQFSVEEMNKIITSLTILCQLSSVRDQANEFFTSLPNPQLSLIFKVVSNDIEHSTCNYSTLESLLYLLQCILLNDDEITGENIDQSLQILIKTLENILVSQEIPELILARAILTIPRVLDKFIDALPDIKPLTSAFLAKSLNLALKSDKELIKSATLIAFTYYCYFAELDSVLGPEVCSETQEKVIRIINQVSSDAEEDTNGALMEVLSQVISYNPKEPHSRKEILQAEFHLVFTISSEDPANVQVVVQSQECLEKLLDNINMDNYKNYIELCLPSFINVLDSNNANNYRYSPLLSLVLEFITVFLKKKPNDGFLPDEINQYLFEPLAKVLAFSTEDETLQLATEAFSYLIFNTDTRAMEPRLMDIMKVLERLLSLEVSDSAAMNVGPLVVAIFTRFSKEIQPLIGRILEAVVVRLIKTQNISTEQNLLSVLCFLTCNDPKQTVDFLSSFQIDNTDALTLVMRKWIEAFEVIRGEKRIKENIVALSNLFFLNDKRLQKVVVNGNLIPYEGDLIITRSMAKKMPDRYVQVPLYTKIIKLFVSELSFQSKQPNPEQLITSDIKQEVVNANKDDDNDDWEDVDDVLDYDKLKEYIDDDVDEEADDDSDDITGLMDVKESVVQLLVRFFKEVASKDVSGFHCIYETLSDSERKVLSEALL
Description: pull-down.

The target of the next assay is T2, Kap114p (Δ899-956) (S. cerevisiae, UniProt P53067 1-1004, Δ899-956).
T2 sequence (looked up): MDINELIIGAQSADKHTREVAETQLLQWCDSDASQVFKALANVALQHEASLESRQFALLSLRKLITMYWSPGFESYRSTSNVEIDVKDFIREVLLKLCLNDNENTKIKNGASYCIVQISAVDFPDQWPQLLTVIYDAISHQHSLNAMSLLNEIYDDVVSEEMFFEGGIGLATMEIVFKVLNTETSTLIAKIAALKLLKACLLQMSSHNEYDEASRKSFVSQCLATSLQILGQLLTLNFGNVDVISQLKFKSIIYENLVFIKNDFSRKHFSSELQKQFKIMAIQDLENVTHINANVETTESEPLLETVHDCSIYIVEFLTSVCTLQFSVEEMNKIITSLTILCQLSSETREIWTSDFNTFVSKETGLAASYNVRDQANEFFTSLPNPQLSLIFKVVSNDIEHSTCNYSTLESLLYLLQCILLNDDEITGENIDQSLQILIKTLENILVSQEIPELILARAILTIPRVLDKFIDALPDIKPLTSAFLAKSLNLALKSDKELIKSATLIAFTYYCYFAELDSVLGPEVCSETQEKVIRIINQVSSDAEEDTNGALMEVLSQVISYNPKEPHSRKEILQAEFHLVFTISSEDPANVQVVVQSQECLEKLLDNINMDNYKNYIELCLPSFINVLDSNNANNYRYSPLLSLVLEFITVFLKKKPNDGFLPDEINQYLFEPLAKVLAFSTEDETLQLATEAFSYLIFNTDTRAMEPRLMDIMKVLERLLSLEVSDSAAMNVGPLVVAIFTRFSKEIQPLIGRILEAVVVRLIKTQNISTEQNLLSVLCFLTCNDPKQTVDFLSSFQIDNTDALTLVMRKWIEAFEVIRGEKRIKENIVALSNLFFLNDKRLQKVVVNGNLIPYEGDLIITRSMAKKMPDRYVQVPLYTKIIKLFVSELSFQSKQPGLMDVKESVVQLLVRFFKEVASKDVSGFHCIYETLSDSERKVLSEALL
Description: pull-down.

Assay [1] addresses His-tagged RanQ69L, P62826. As to the kind of experiment: SEC. The following applies: remark: other sources report otherwise.

B1: GST-fused yTBP (61-240) (domain or fragment, S. cerevisiae, UniProt P13393 61-240, looked up)
chain: SGIVPTLQNIVATVTLGCRLDLKTVALHARNAEYNPKRFAAVIMRIREPKTTALIFASGKMVVTGAKSEDDSKLASRKYARIIQKIGFAAKFTDFKIQNIVGSCDVKFPIRLEGLAFSHGTFSSYEPELFPGLIYRMVKPKIVLLIFVSGKIVLTGAKQREEIYQAFEAIYPVLSEFRKM
As for B1, the binding result in the assay with Kap114p (Δ347-371) and with Kap114p (Δ899-956) was “binds” throughout.

B2: Kap114p, P53067 1-1004 (natural protein)
chain: MDINELIIGAQSADKHTREVAETQLLQWCDSDASQVFKALANVALQHEASLESRQFALLSLRKLITMYWSPGFESYRSTSNVEIDVKDFIREVLLKLCLNDNENTKIKNGASYCIVQISAVDFPDQWPQLLTVIYDAISHQHSLNAMSLLNEIYDDVVSEEMFFEGGIGLATMEIVFKVLNTETSTLIAKIAALKLLKACLLQMSSHNEYDEASRKSFVSQCLATSLQILGQLLTLNFGNVDVISQLKFKSIIYENLVFIKNDFSRKHFSSELQKQFKIMAIQDLENVTHINANVETTESEPLLETVHDCSIYIVEFLTSVCTLQFSVEEMNKIITSLTILCQLSSETREIWTSDFNTFVSKETGLAASYNVRDQANEFFTSLPNPQLSLIFKVVSNDIEHSTCNYSTLESLLYLLQCILLNDDEITGENIDQSLQILIKTLENILVSQEIPELILARAILTIPRVLDKFIDALPDIKPLTSAFLAKSLNLALKSDKELIKSATLIAFTYYCYFAELDSVLGPEVCSETQEKVIRIINQVSSDAEEDTNGALMEVLSQVISYNPKEPHSRKEILQAEFHLVFTISSEDPANVQVVVQSQECLEKLLDNINMDNYKNYIELCLPSFINVLDSNNANNYRYSPLLSLVLEFITVFLKKKPNDGFLPDEINQYLFEPLAKVLAFSTEDETLQLATEAFSYLIFNTDTRAMEPRLMDIMKVLERLLSLEVSDSAAMNVGPLVVAIFTRFSKEIQPLIGRILEAVVVRLIKTQNISTEQNLLSVLCFLTCNDPKQTVDFLSSFQIDNTDALTLVMRKWIEAFEVIRGEKRIKENIVALSNLFFLNDKRLQKVVVNGNLIPYEGDLIITRSMAKKMPDRYVQVPLYTKIIKLFVSELSFQSKQPNPEQLITSDIKQEVVNANKDDDNDDWEDVDDVLDYDKLKEYIDDDVDEEADDDSDDITGLMDVKESVVQLLVRFFKEVASKDVSGFHCIYETLSDSERKVLSEALL
For orientation: stoichiometry N means the number of molecules, sites or subunits per partner or assembly. As for B2, the stoichiometry N in assay [1] is 1.
